Data: the supplement of paper PMC9170038

Columns and labels:
MS2 coat protein [1] = assay: apparent KD of MS2 coat protein, switch ON state; designed switch direction (-1 OFF switch, 1 ON switch): 1; higher = weaker reporter binding; details: FMN input: 0 or 200 uM; Eterna round: R93 (includes R88 designs)
Method in brief: (§1)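 Designed RNA switches were transcribed on-chip from Illumina sequencing clusters and titrated with SNAP-549-labelled MS2 coat protein in twofold steps from 0.7 or 1.5 nM up to 3 µM. Each step lasted 0.8–1.5 h at first and 10–20 min by the end, in 100 mM Tris-HCl pH 7.5, 80 mM KCl and 4 mM MgCl2, without or with constant ligand. Apparent KD is the median, for each design, of fits to normalised cluster binding curves.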

MS2 coat protein [2] = assay: apparent KD of MS2 coat protein, switch OFF state (with FMN for OFF switches, without FMN for ON switches); designed switch direction (-1 OFF switch, 1 ON switch): 1; higher = weaker reporter binding; details: FMN input: 0 or 200 uM; Eterna round: R93 (includes R88 designs)
Method in brief: as §1

Sequence	apparent KD of MS2 coat protein (MS2 coat protein [1]) [nM]	apparent KD of MS2 coat protein (MS2 coat protein [2]) [nM]
AUAUGAGCUAUGGAGGAUAUCCACAAUAAAACAUGAGGAUCACCCAUGUAAGAAAGAAAAGAAUGGGAGAAGGCCAUAGCUCAAU [SS 2 M45]	7.54	17.5
AUAUGAUCAUGUGAGGAUAUCCAUAAUAAAACAUGAGGAUCACCCAUGUAUAGAUAAUAAUAAUGGGAGAAGGCACAUGAUCAAU [SS 2 M41]	21.6	17.9
AUCAGGAAGAGAGAGGAUAUCCAAAGGAAAACAUGAGGAUCACCCAUGUAAAAGGUAGGAAAUUGGGAGAAGGCUCAAGAGAGAG [salish99-ss2-093]	26.4	29.3
AUGAAUAGCAUCGAGGAUAUCCAGUCAUGCACAUGAGGAUCACCCAUGUAAGAGAGAGUAUAAUGGGAGAAGGCGAGUACUCGAU [JR_SS002_Sub1704]	82	69.4
AUGGUCAAGUGUGAGGAUAUCCAGGCUCCCACAUGAGGAUCACCCAUGUUUAUUAGAGCGUAAAGGGAGAAGGUACGAACGCCAU [Esbibiti]	15.6	26.9
AUGGUGCAGGUACAGGAUAUGUUGCUCGUAACAUGAGGAUCACCCAUGUACCUAUGAGAUUAAAUGCAGAAGGGUGCACACCACG [Quorra]	43.5	1480
AUUCCAAAUAGUCAGGAUAUCAAAAAUAAGACAUGAGGAUCACCCAUGUACUUAGUAAAAGUAAAUGAGAAGGGACAGGGUGUAA [JR_SS002_Sub404]	12.9	19.4
CAAACAACAGCACAGGAUAUCCAUAUAAUAACAUGAGGAUCACCCAUGUAAGCGGAAAAUAACGCGGAGAAGGGUGAACACACAA [Default title]	130	35.1
CAUCAACAUGAGGAUCACCCAUGUCAGUGAUGUCAAGGAUAUGGGAGACAUAAAAUUCUUCUAGAAGGUGAAAGAU [Orlaanar]	209	125
CCGAUGGUAUACUAGGAUAUGGGCGCCCUUACAUGAGGAUCACCCAUGUUUACACAAAUCCGCGGCCAGAAGGAGUUCAUGGGAG [Orgere]	90.3	163
CGAAAGGAGAGAGAGGAUAUCCAAAGGAAAACAUGAGGAUCACCCAUGUAGAAGGUAGGAGAUUGGGAGAAGGCUCAAGCUAAAC [salish99-ss2-158]	40.2	37.3
CGAGUACAUGAGGAUCACCCAUGUUAUGAAUUGUCAGGAUAUGGAUAAAGGUGACAUGCGCCAGAAGGGACGUAUG [JR_SS001_Sub1006]	36.9	43.7
CGGAGACAUGAGGAUCACCCAUGUGAGAAGAGGCGAGGAUAUCGAAAAAAAAAAAAAAAACGAGAAGGCGCGAGAC [salish99-SS1-011]	28.5	51.4
CGGAGACAUGAGGAUCACCCAUGUGAGAAGAGGCGAGGAUAUCGAAAGAAAGAAGAGAAACGAGAAGGCGCGAGGA [salish99-SS1-067]	22.7	38.8
CGUGAACAUGAGGAUCACCCAUGUGAAAAACAUAGAGGAUAUGUCACGUGAGUGUAAAAGACAGAAGGCUAUCGUG [Mod 3 of Round 1 starryjess' Mod pf Nando]	36.5	74.1
CUGGACAUAGUAUAGGAUAUAUGAAUAGUUACAUGAGGAUCACCCAUGUGCAUUUAUAUGCGAACAUAGAAGGGUGGUAGUUAAG [Mat - Same state - Malcolm Mod - D141]	88.4	48.4
GAAAAACAUGAGGAUCACCCAUGUAAUACAACGUCAGGAUAUUGAUUUUAUUAUGUAUUGCAAGAAGGGACAAAAG [Mat - Same State 1 - Hyphema mod - D99]	95.2	49.4
GAAAAACAUGAGGAUCACCCAUGUAGAAACUAGGGAGGAUAUACUAAGACGAAAGUCGAAGUAGAAGGCCUUUAAA [Same State 1.4m (Mat - Mod of Eli - )]	14.2	14.7
GAAAAACAUGAGGAUCACCCAUGUAGAAAUAUGGGAGGAUAUACAAACUCGAAAGACAAAGUAGAAGGCCUAAAAG [Garnet 24]	38.2	133

Sequence	apparent KD of MS2 coat protein (MS2 coat protein [1]) [nM]	apparent KD of MS2 coat protein (MS2 coat protein [2]) [nM]
GAAAAACAUGAGGAUCACCCAUGUAGAAAUAUGGGAGGAUAUACAAACUCGAAAGUCAAAGUAGAAGGCCUAAAAG [Garnet 29]	107	224
GAAAAACAUGAGGAUCACCCAUGUAGAAAUAUGGGAGGAUAUACAAAGACGAAAGUCAAAGUAGAAGGCCCAUAAG [Starry Same State 1.6 (mat747 round 1 mod)]	13.7	16.2
GAAAAACAUGAGGAUCACCCAUGUAGAAAUAUGGGAGGAUAUACUAUGACGAAAGUCAAAGUAGAAGGUCUAAAAG [JL S1 M-MoE mod 6 In the Read]	166	125
GAAAAACAUGAGGAUCACCCAUGUAGAGAUAUGGGAGGAUAUACAAAGACGAAAGUCGAGGUAGAAGGCCUAAAAG [Garnet 55]	24.4	116
GAAAAACAUGAGGAUCACCCAUGUCGAGAGAGACGAGGAUAUCUGAAUCGAUUAGAUUACGGAGAAGGCGUGAAAG [Mat - Same State 1 - Hyphema mod - D96]	20.3	25.8
GAAAAACAUGAGGAUCACCCAUGUGAAAACUUGGGAGGAUAUACAAAGACGAAAGUCGAAGUAGAAGGCCUAAAAG [Same State 1.4k (Mat - Mod of Eli - )]	17.2	106
GAAAAACAUGAGGAUCACCCAUGUGAUAACAUGGGAGGAUAUACAUGGACGAUAGUCAAAGUAGAAGGCCUAAAAG [Garnet 62]	104	32.1
GAAAAACAUGAGGAUCACCCAUGUGGAAAUAUGGGAGGAUAUACUAAGACGAAAGUCGAUGUAGAAGGCCUAAAAG [Same State 1.4e (Mat - Mod of Eli - )]	22	82.9
GAAAUACAUGAGGAUCACCCAUGUUAGGUGGGUCAAGGAUAUUAAGGUAAAUAAAAACCUUGAGAAGGUGAAUAAA [JR_SS001_Sub203]	157	239
GAAGACAUAGUUCAGGAUAUAUGAAUAGUCACAUGAGGAUCACCCAUGUGCAUUUAUAUGCGCACAUAGAAGGGAGGUAGUUAUC [SameState2 Malc#24]	33.6	23.5
GAGAAACAUGAGGAUCACCCAUGUAGAAAUAUGGGAGGAUAUACAGAGACGAGAGUCAAAGUAGAAGGCCUAGAAG [77%, Mat - Mod of Eli - With 4 more G's]	32.1	66.1
GAGAGACAUGAGGAUCACCCAUGUAGGAUUAUGGGAGGAUAUACAAAGACGAGAGUCAGAGUAGAAGGCCUAGGAU [salish99-ss1-138(!)]	21.2	54.9
GAGGACGUAGGAUAGGAUAUAUGAAUAAUUACAUGAGGAUCACCCAUGUCCAUUUAUAUGGGAACAUAGAAGGGUUGUGGUUAUC [SameState2 Malc#35]	446	491
GAUAGACAUGAGGAUCACCCAUGUAGAAUUAUGGGAGGAUAUACAAAGACGAGAGUCAGAGUAGAAGGCCUAGGAC [salish99-ss1-159]	23.6	58.6
GAUCCGACUAGUCAGGAUAUCAGGCGUAAGACAUGAGGAUCACCCAUGUCCUAAGAACAAGUAACUGAGAAGGGACAGGGCGACC [JR_SS002_Sub413]	62.3	62.4
GGAAAUAACAGAGAGGAUAUCCAAAGGAAAACAUGAGGAUCACCCAUGUAAAAGGAAGGAAAUUGGGAGAAGGCUCAAAAUAAAU [salish99-ss2-015]	20.4	29.1
GGAACUACAGAUCAGGAUAUGUUUGGGUAAACAUGAGGAUCACCCAUGUGCACCCGAUACACAGGACAGAAGGGAUAACGUGGGA [Maondior]	15.5	20.2
GGGAGGAAGAGAGAGGAUAUCCAAAGGAAAACAUGAGGAUCACCCAUGUAAAAGGUAGGAAAUUGGGAGAAGGCUCAAGAGACCG [salish99-ss2-057]	34.2	37.9
GUAUAUAUAAGACAGGAUAUCCGAAAGUAAACAUGAGGAUCACCCAUGUAAAGAAAGAAACUCAUGGAGAAGGGUCAAUAUAUAC [Mat - Same State 2 - Tesla mod - D83]	22.2	66.7
